Experiments:
[1] = target: Caveolin-1 135-178 (UniProt Q03135); test: given as Ka
[2] = target: Caveolin-1 61-101 (UniProt Q03135); test: given as Ka
Sequence of Caveolin-1 61-101 (Q03135 61-101): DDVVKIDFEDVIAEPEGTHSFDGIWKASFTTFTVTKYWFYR

Sequence of PrP, P04925 (P04925 23-230): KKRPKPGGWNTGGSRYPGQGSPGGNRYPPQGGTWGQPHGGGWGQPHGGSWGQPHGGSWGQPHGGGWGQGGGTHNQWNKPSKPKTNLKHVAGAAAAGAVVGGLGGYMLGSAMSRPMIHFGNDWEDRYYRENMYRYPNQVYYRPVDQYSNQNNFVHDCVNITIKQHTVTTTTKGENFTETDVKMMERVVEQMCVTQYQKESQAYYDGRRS
Sequence of Caveolin-1 135-178 (Q03135 135-178): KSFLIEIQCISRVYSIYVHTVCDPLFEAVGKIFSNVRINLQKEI

PrP, P04925
Kd [1]: 1.18 nM | Kd [2]: 1.18 nM

Source: article PMC1559926
